Reference: patent US20020151477, “Nuclear receptor coactivator” (published 2002)

Tests used:
[1] = molecular target: T1, TRα/RXRα + GST-RAP250 (818-931) complex (Homo sapiens (TRα) / Rattus norvegicus …, UniProt P10827-2;Q05343;Q9JL19 P10827-2:1-410,Q05343:1-467,Q9JL19:818-931); test: EMSA; weak supershift without ligand, pronounced with T3 and/or 9-cis RA; conditions: tags: GST-RAP250 purified from E. coli; label: 32P (dCTP)
T1 chain 1: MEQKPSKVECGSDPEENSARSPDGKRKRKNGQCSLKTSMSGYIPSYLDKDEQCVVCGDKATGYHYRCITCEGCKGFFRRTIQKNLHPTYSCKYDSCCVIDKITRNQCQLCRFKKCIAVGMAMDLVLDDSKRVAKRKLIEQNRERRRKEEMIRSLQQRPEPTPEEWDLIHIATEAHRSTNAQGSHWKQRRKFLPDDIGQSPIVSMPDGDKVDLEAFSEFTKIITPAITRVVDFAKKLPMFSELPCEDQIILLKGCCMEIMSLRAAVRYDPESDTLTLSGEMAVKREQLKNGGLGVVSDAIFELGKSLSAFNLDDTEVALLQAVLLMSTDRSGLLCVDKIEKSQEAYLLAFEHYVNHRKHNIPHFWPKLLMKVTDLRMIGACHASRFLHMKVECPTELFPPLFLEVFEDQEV
T1 chain 2: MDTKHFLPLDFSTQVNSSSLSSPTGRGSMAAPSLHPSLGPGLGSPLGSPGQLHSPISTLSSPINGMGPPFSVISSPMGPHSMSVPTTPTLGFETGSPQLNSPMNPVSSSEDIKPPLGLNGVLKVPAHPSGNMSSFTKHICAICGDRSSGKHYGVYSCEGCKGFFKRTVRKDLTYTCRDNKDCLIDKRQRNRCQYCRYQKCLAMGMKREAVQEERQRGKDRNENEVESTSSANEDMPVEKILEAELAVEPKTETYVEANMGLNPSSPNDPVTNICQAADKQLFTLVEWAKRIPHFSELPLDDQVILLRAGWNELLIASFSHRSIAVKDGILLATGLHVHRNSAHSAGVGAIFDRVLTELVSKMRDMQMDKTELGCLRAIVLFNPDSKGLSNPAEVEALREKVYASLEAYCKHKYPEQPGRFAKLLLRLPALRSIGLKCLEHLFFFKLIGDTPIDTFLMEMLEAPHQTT
T1 chain 3: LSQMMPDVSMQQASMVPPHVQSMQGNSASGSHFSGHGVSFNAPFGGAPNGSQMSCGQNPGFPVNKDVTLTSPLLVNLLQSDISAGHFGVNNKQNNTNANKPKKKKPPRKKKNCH

[2] = molecular target: T2, TRα/RXRα heterodimer (Homo sapiens (TRα) / Rattus norvegicus …, UniProt P10827-2;Q05343 P10827-2:1-410,Q05343:1-467); test: EMSA; with and without T3 / 9-cis RA; GST alone does not interact with the complex; on ice; conditions: tags: pCMVhTRα and pBKCMVrRXRα, rabbit reticulocyte lysate TNT; label: 32P (dCTP)
T2 sequence 1: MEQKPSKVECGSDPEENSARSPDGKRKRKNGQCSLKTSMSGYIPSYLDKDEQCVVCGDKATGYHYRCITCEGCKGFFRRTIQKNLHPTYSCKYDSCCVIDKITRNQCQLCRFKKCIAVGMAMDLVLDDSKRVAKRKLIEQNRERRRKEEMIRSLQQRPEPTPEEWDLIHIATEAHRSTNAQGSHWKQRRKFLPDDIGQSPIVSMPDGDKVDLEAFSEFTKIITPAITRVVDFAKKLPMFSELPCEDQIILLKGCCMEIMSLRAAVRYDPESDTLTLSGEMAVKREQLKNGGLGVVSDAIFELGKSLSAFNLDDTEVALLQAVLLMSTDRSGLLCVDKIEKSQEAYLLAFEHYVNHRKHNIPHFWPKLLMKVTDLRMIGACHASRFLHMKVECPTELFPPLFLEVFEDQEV
T2 sequence 2: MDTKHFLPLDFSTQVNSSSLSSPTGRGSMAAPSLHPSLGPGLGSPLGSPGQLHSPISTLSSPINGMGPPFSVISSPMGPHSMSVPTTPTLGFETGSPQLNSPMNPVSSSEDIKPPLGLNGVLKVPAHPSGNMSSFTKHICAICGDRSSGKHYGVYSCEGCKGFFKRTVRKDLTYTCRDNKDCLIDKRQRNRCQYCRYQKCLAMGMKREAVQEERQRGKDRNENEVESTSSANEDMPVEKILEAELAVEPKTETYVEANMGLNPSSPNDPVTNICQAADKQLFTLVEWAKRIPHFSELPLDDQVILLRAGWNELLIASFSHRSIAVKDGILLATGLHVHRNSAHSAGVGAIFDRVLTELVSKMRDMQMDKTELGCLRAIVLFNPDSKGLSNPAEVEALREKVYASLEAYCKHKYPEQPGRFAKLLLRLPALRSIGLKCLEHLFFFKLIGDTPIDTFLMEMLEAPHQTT

[3] = molecular target: T3, TRβ/RXRα heterodimer (Homo sapiens (TRβ) / Rattus norvegicus …, UniProt P10828;Q05343 P10828:1-461,Q05343:1-467); test: EMSA; oligomeric complex with GST-RAP250; conditions: tags: pCMVhTRβ and pBKCMVrRXRα, rabbit reticulocyte lysate TNT; label: 32P (dCTP)
T3 sequence 1: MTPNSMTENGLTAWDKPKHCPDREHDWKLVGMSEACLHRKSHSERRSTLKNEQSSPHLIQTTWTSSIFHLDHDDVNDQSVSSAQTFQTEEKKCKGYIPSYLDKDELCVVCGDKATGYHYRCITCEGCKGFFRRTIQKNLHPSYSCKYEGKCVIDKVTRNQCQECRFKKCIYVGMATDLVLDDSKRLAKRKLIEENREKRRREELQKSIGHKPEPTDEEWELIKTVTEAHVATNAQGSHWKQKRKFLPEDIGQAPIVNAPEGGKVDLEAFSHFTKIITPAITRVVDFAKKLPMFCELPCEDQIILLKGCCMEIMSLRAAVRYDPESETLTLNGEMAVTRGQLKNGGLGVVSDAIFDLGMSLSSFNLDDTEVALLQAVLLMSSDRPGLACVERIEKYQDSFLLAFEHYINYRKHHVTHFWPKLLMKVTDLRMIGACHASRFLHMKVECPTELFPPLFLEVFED
T3 sequence 2: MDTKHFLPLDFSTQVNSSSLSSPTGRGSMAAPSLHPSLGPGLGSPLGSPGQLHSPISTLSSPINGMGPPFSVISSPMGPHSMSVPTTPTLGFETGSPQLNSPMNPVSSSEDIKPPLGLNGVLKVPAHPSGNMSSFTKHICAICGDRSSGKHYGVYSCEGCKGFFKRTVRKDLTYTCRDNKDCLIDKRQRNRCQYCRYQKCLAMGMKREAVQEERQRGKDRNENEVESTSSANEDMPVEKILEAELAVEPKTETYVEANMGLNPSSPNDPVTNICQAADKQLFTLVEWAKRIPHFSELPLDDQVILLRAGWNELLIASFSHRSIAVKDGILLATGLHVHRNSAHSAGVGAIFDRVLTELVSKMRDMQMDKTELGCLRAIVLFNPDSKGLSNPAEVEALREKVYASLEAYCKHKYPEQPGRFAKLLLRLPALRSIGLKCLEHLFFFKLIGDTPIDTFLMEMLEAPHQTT

Measured: binding result

B1: DR4-TRE (dsDNA)
DNA 1: TCGATCAGGTCATTTCAGGTCAGAG
DNA 2: CTCTGACCTGAAATGACCTGATCGA
binds: all assays above
